Test results reported in patent US20240270821A1, “GIP/GLP1/GCG TRI-RECEPTOR AGONISTS AND USES THEREOF” (priority 2023, published 2024).

T1: human GIP receptor (human) (UniProt P48546)
T1 sequence (looked up): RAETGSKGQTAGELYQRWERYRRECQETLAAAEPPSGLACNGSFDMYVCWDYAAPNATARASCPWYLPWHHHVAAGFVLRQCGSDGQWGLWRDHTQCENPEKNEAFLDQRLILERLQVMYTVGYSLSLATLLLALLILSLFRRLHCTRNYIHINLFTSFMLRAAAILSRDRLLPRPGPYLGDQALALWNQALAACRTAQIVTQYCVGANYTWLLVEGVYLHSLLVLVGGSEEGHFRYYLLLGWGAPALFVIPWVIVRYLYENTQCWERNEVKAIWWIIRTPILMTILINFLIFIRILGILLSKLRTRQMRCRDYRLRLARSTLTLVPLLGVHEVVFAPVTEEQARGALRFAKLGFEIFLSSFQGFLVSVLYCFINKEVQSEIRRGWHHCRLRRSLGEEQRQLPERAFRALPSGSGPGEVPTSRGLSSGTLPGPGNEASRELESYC


Legend:
Assay in all cases: cell-based or functional assay
[1] = biological target: T1, human GIP receptor (human)
[2] = biological target: human glucagon receptor (human) (UniProt P47871)
hGLP-1R = hGLP-1R (Homo sapiens, UniProt P43220)
Sequence of hGLP-1R (P43220 24-463): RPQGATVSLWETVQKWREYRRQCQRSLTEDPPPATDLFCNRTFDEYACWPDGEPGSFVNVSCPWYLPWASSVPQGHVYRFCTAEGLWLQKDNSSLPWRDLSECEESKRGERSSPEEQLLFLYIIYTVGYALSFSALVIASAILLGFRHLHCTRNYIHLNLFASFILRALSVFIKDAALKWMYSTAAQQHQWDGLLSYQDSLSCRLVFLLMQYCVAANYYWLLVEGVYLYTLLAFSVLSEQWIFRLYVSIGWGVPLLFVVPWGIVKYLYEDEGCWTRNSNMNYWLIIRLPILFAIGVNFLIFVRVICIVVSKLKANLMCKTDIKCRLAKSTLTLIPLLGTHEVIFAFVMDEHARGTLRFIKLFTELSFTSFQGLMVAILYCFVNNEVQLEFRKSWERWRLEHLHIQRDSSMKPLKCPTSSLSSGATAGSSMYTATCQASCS

Sequence of human glucagon receptor (human) (P47871 26-477): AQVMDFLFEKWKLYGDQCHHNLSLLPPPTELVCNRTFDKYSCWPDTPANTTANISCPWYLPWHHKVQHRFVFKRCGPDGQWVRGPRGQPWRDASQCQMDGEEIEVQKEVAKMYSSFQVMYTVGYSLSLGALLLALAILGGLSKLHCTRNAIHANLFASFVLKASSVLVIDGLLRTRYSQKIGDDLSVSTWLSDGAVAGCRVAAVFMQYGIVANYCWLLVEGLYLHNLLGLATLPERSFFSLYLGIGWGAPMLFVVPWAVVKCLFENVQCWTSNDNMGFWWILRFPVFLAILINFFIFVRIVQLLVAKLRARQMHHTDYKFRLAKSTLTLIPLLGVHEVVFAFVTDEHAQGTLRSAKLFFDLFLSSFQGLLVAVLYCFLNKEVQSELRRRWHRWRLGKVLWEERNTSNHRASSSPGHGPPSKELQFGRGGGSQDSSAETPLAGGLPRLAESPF

| Binder | Relative cAMP EC50 [1] | cAMP Rel EC50, nM (1% HSA) [1] | Relative cAMP EC50 [2] | cAMP Rel EC50, nM (1% HSA) [2] | Relative cAMP EC50 (hGLP-1R) | cAMP Rel EC50, nM (1% HSA) (hGLP-1R) |
| --- | --- | --- | --- | --- | --- | --- |
| YXQGTXTSDYSILLDKIAQXAFIKYLEEGGPSSGAPPPS (not fully specified; synthetic construct; SITE 2: note = 2-Aminoisobutyric Acid; SITE 6: note = alpha-methyl-2-fluoro-L-phenylalanine; SITE 20: note = 2-Aminoisobutyric Acid; SITE 24: note = Lysine is chemically modified through conjugation of the epsilon-amino group of the Lysine side chain with (2-[2-(2-Amino-ethoxy)-) [Example 430] | 0.0144 nM | 4.65 nM | 2.11 nM | 559 nM | 0.438 nM | 78.9 nM |
| YXQGTXTSDYSIXLDKKAQXAFIEYLEEGGPSSGAPEPS (synthetic construct; SITE 2: note = 2-Aminoisobutyric Acid; SITE 6: note = alpha-methyl-2-fluoro-L-phenylalanine; SITE 13: note = alpha-methyl-leucine; SITE 17: note = Lysine is chemically modified through conjugation of the epsilon-amino group of the Lysine side chain with (2-[2-(2-Amino-ethoxy)-et)) [Example 423] | 0.0114 nM | 3.07 nM | 1.92 nM | 319 nM | 0.194 nM | 28.7 nM |
| YXQGTXTSDYSILLDKKAQXAFIEYLLEGGPSSGAPPPS (synthetic construct; SITE 2: note = 2-Aminoisobutyric Acid; SITE 6: note = alpha-methyl-L-phenylalanine; SITE 17: note = Lysine is chemically modified through conjugation of the epsilon-amino group of the Lysine side chain with (2-[2-(2-Amino-ethoxy)-ethoxy]-acetyl)2-(gamma-Glu)-CO-(CH2 )16-CO2H; SI) [Example 419] | 0.0235 nM | 9.47 nM | 8.52 nM | 1650 nM | 0.615 nM | 65.5 nM |
| YXQGTXTSDYSILLDXKAQXAFIEYLEEGGPSSGAPPPS (synthetic construct; SITE 2: note = 2-Aminoisobutyric Acid; SITE 6: note = alpha-methyl-2-fluoro-L-phenylalanine; SITE 16: note = L-ornithine; SITE 17: note = Lysine is chemically modified through conjugation of the epsilon-amino group of the Lysine side chain with (gamma-Glu)2-CO-(CH2)16-CO2H; SITE) [Example 414] | 0.0303 nM | 14.9 nM | 4.56 nM | 487 nM | 0.176 nM | 32.8 nM |
| YXQGTXTSDYSILLDKKAQXXFIEYLEEGGPSSGAPPPS (synthetic construct; SITE 2: note = 2-Aminoisobutyric Acid; SITE 6: note = alpha-methyl-2-fluoro-L-phenylalanine; SITE 17: note = Lysine is chemically modified through conjugation of the epsilon-amino group of the Lysine side chain with (gamma-Glu)2-CO-(CH2)16-CO2H; SITE 20: note = 2-Aminoisobutyric) [Example 415] | 0.0496 nM | 28.9 nM | 8.64 nM | 1090 nM | 0.38 nM | 52.6 nM |
| HXQGTXTSDYSILLDKKAQXAFIEYLEEGGPSSGAPPPS (not fully specified; synthetic construct; SITE 2: note = 2-Aminoisobutyric Acid; SITE 6: note = alpha-methyl-2-fluoro-L-phenylalanine; SITE 17: note = Lysine is chemically modified through conjugation of the epsilon-amino group of the Lysine side chain with (2-[2-(2-Amino-ethoxy)-ethoxy]-acetyl)-(gamma-Glu)-CO-(CH2) 16-) [Example 425] | 0.0997 nM | 46.9 nM | 5.49 nM | 1150 nM | 0.15 nM | 20.3 nM |
| YXQGTXTSDYSIXLDKKAQXAFIEYLEEGGPSSGAPPPS (synthetic construct; SITE 2: note = 2-Aminoisobutyric Acid; SITE 6: note = alpha-methyl-2-fluoro-L-phenylalanine; SITE 13: note = alpha-methyl-leucine; SITE 17: note = Lysine is chemically modified through conjugation of the epsilon-amino group of the Lysine side chain with (2-[2-(2-Amino-ethoxy)-et)) [Example 421] | 0.0132 nM | 2.98 nM | 3.25 nM | 468 nM | 0.21 nM | 31.9 nM |
| HXQGTXTSDYSILLDKKAQXAFIEYLEEGGPSSGAPPPS (synthetic construct; SITE 2: note = 2-Aminoisobutyric Acid; SITE 6: note = alpha-methyl-2-fluoro-L-phenylalanine; SITE 17: note = Lysine is chemically modified through conjugation of the epsilon-amino group of the Lysine side chain with (gamma-Glu)2-CO-(CH2)16-CO2H; SITE 20: note = 2-Aminoisobutyric) [Example 426] | 0.079 nM | 29.8 nM | 4.33 nM | 740 nM | 0.139 nM | 16.6 nM |
| YXQGTXTSDXSILLDKKAQXAFIEYLEEGGPSSGAPPPS (not fully specified; synthetic construct; SITE 2: note = 2-Aminoisobutyric Acid; SITE 6: note = alpha-methyl-2-fluoro-L-phenylalanine; SITE 10: note = 3-(4-Pyridyl)-L-alanine; SITE 17: note = Lysine is chemically modified through conjugation of the epsilon-amino group of the Lysine side chain with (gamma-Glu)2-CO-(CH2)1) [Example 413] | 0.0881 nM | 23.5 nM | 6.3 nM | 629 nM | 0.564 nM | 41.4 nM |
| YXQGTXTSDYSILLDXKAQXAFIEYLLEGGPSSGAPPPS (synthetic construct; SITE 2: note = 2-Aminoisobutyric Acid; SITE 6: note = alpha-methyl-2-fluoro-L-phenylalanine; SITE 16: note = L-ornithine; SITE 17: note = Lysine is chemically modified through conjugation of the epsilon-amino group of the Lysine side chain with (gamma-Glu)2-CO-(CH2)16-CO2H; SITE) [Example 428] | 0.01 nM | 4.55 nM | 2.35 nM | 536 nM | 0.207 nM | 38.2 nM |
| YXQGTXTSDYSILLDXKAQXAFIEYLLEGGPSSGAPPPS (synthetic construct; SITE 2: note = 2-Aminoisobutyric Acid; SITE 6: note = alpha-methyl-2-fluoro-L-phenylalanine; SITE 16: note = L-ornithine; SITE 17: note = Lysine is chemically modified through conjugation of the epsilon-amino group of the Lysine side chain with (2-[2-(2-Amino-ethoxy)-ethoxy]-ace)) [Example 427] | 0.0121 nM | 4.25 nM | 3.81 nM | 1440 nM | 0.282 nM | 42.9 nM |
| YXQGTXTSDYSILLDKKAQXNFIEYLEEGGPSSGAPPPS (synthetic construct; SITE 2: note = 2-Aminoisobutyric Acid; SITE 6: note = alpha-methyl-2-fluoro-L-phenylalanine; SITE 17: note = Lysine is chemically modified through conjugation of the epsilon-amino group of the Lysine side chain with (gamma-Glu)2-CO-(CH2)16-CO2H; SITE 20: note = 2-Aminoisobutyric) [Example 416] | 0.0393 nM | 27.6 nM | 2.08 nM | 348 nM | 0.331 nM | 40.8 nM |
| YXQGTXTSDYSSLLDKKAQXAFIEYLEEGGPSSGAPPPS (synthetic construct; SITE 2: note = 2-Aminoisobutyric Acid; SITE 6: note = alpha-methyl-2-fluoro-L-phenylalanine; SITE 17: note = Lysine is chemically modified through conjugation of the epsilon-amino group of the Lysine side chain with (2-[2-(2-Amino-ethoxy)-ethoxy]-acetyl)-(gamma-Glu)-CO-(CH2) 16-) [Example 409] | 0.363 nM | 66.6 nM | 7.92 nM | 1190 nM | 0.484 nM | 41.7 nM |
| YXQGTXTSDXXIXLDXKAQXXFIEXLIEGGPSSGAPEPSEG (synthetic construct; SITE 2: note = 2-Aminoisobutyric Acid; SITE 6: note = alpha-methyl-2-fluoro-L-phenylalanine; SITE 10: note = 3-(4-Pyridyl)-L-alanine; SITE 11: note = alpha-methyl-L-serine; SITE 13: note = alpha-methyl-leucine; SITE 16: note = L-ornithine; SITE 17: note = Lysine is chemically mo) [Example 429] | 0.0142 nM | 1.89 nM | 1.19 nM | 138 nM | 0.178 nM | 12.1 nM |
